The target of this data set is FEN1 (human, UniProt P39748 1-380). In words: fluorescence anisotropy; rotational correlation time decreases on binding; RPA reaction buffer with 50 mM KCl or FEN1 reaction buffer (full composition not in material); steady-state measurements at room temperature; proteins in excess over Kd (Kd stated only as low nM). Conditions: protein: recombinant; tags: none left (His6-SUMO cleaved); label: 5' flap tip pCy3; nicked double flap: 3 strands, 5' flap 4 nt, 3' flap 1 nt. A general note: Fluorescence polarisation rises when a labelled molecule tumbles more slowly, as on binding a larger partner.
Chain of FEN1 (P39748 whole entry): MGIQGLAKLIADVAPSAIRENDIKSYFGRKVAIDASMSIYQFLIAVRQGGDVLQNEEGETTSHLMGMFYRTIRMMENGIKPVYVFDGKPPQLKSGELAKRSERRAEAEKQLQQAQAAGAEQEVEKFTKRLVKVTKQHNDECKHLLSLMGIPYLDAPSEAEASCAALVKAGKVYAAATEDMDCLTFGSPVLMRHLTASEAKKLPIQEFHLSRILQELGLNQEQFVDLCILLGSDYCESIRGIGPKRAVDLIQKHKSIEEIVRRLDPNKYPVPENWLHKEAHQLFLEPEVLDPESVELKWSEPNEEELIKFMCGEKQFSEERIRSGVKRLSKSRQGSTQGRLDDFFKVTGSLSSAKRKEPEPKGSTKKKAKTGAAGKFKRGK

B1: DF-4,1 pCy3 (structured_DNA)
DNA 1: GATGACGAGCAGTCCTAACTGGAAATCTAGCTCTGTGGAG
DNA 2: CTCCACAGAGCTAGATTTCCC
DNA 3: TTTAAGTTAGGACTGCTCGTCATC
B1: the binding result is “binds”.

The values are drawn from publication PMC6506533, “Initial state of DNA-Dye complex sets the stage for protein induced fluorescence modulation”.
